According to patent publication US20100260668A1 (published 2010):

B1: DVD516 (bispecific antibody, IgG1)
VH: EVQLVESGGGLVQPGGSLRLSCAASGFTINASWIHWVRQAPGKGLEWVGAIYPYSGYTNYADSVKGRFTISADTSKNTAYLQMNSLRAEDTAVYYCARWGHSTSPWAMDYWGQGTLVTVSSASTKGPEVQLQQSGPELEKPGASVKISCKASGYSFTGYNMNWVKQSNGKSLEWIGNIDPYFGGTNYNQKFKGKATLTVDKSSSTAYMQLKSLTSEDSAVYYCARNYDYDGGCFDYWGQGTTLTVSS
VL: DIQMTQSPSSLSASVGDRVTITCRASQVIRRSLAWYQQKPGKAPKLLIYAASNLASGVPSRFSGSGSGTDFTLTISSLQPEDFATYYCQQSNTSPLTFGQGTKVEIKRTVAAPQAVVTQESALTTSPGETVTLTCRSSTGAVTTSNYANWVQEKPDHLFTGLIGGTNNRAPGVPARFSGSLIGDKAALTITGAQTEDEAIYFCALWYSNHWVFGGGTKLTVLG
notes: DVD-Ig, outer AB071 / inner AB073; HC linker short, LC linker short; also called DVD516H; DVD516L
B2: DVD524 (bispecific antibody, IgG1)
VH: EVQLVESGGGLVQPGGSLRLSCAASGYTFTNYGMNWVRQAPGKGLEWVGWINTYTGEPTYAADFKRRFTFSLDTSKSTAYLQMNSLRAEDTAVYYCAKYPHYYGSSHWYFDVWGQGTLVTVSSASTKGPSVFPLAPEVQLQQSGPELEKPGASVKISCKASGYSFTGYNMNWVKQSNGKSLEWIGNIDPYFGGTNYNQKFKGKATLTVDKSSSTAYMQLKSLTSEDSAVYYCARNYDYDGGCFDYWGQGTTLTVSS
VL: DIQMTQSPSSLSASVGDRVTITCSASQDISNYLNWYQQKPGKAPKVLIYFTSSLHSGVPSRFSGSGSGTDFTLTISSLQPEDFATYYCQQYSTVPWTFGQGTKVEIKRTVAAPQAVVTQESALTTSPGETVTLTCRSSTGAVTTSNYANWVQEKPDHLFTGLIGGTNNRAPGVPARFSGSLIGDKAALTITGAQTEDEAIYFCALWYSNHWVFGGGTKLTVLG
notes: HC linker long, LC linker short; also called DVD524H; DVD524L
B3: DVD444 (bispecific antibody, IgG1)
VH: EVQLVESGGGLVQPGGSLRLSCAASGFTISDYWIHWVRQAPGKGLEWVAGITPAGGYTYYADSVKGRFTISADTSKNTAYLQMNSLRAEDTAVYYCARFVFFLPYAMDYWGQGTLVTVSSASTKGPQVQLVQSGAEVKKPGASVKISCKASGYSFTAYYIHWVKQAPGQGLEWIGYISSYNGATNYNQKFKGRVTFTTDTSTSTAYMELRSLRSDDTAVYYCARDYDYDVGMDYWGQGTLVTVSS
VL: DIQMTQSPSSLSASVGDRVTITCRASQDVSTAVAWYQQKPGKAPKLLIYSASFLYSGVPSRFSGSGSGTDFTLTISSLQPEDFATYYCQQSYTTPPTFGQGTKVEIKRTVAAPDIVMTQSPDSLAVSLGERATISCRASESVDNYGISFMKWFQQKPGQPPKLLIYAASNQGSGVPDRFSGSGSGTDFTLTISSLQAEDVAVYYCQQSKEVPWTFGGGTKVEIKR
notes: HC linker short, LC linker short; also called DVD444H; DVD444L
B4: DVD462 (bispecific antibody, IgG1)
VH: B3 VH
VL: DIQMTQSPSSLSASVGDRVTITCRASQDVSTAVAWYQQKPGKAPKLLIYSASFLYSGVPSRFSGSGSGTDFTLTISSLQPEDFATYYCQQSYTTPPTFGQGTKVEIKRTVAAPSVFIFPPDIVMTQSPDSLAVSLGERATISCRASESVDNYGISFMKWFQQKPGQPPKLLIYAASNQGSGVPDRFSGSGSGTDFTLTISSLQAEDVAVYYCQQSKEVPWTFGGGTKVEIKR
notes: HC linker short, LC linker long; also called DVD462H; DVD462L
B5: DVD456 (bispecific antibody, IgG1)
VH: EVQLVESGGGLVQPGGSLRLSCAASGFTISDYWIHWVRQAPGKGLEWVAGITPAGGYTYYADSVKGRFTISADTSKNTAYLQMNSLRAEDTAVYYCARFVFFLPYAMDYWGQGTLVTVSSASTKGPSVFPLAPQVQLVQSGAEVKKPGASVKISCKASGYSFTAYYIHWVKQAPGQGLEWIGYISSYNGATNYNQKFKGRVTFTTDTSTSTAYMELRSLRSDDTAVYYCARDYDYDVGMDYWGQGTLVTVSS
VL: B3 VL
notes: HC linker long, LC linker short; also called DVD456H; DVD456L
B6: DVD443 (bispecific antibody, IgG1)
VH: QVQLVQSGAEVKKPGASVKISCKASGYSFTAYYIHWVKQAPGQGLEWIGYISSYNGATNYNQKFKGRVTFTTDTSTSTAYMELRSLRSDDTAVYYCARDYDYDVGMDYWGQGTLVTVSSASTKGPEVQLVESGGGLVQPGGSLRLSCAASGFTISDYWIHWVRQAPGKGLEWVAGITPAGGYTYYADSVKGRFTISADTSKNTAYLQMNSLRAEDTAVYYCARFVFFLPYAMDYWGQGTLVTVSS
VL: DIVMTQSPDSLAVSLGERATISCRASESVDNYGISFMKWFQQKPGQPPKLLIYAASNQGSGVPDRFSGSGSGTDFTLTISSLQAEDVAVYYCQQSKEVPWTFGGGTKVEIKRTVAAPDIQMTQSPSSLSASVGDRVTITCRASQDVSTAVAWYQQKPGKAPKLLIYSASFLYSGVPSRFSGSGSGTDFTLTISSLQPEDFATYYCQQSYTTPPTFGQGTKVEIKR
notes: HC linker short, LC linker short; also called DVD443H; DVD443L
B7: DVD461 (bispecific antibody, IgG1)
VH: B6 VH
VL: DIVMTQSPDSLAVSLGERATISCRASESVDNYGISFMKWFQQKPGQPPKLLIYAASNQGSGVPDRFSGSGSGTDFTLTISSLQAEDVAVYYCQQSKEVPWTFGGGTKVEIKRTVAAPSVFIFPPDIQMTQSPSSLSASVGDRVTITCRASQDVSTAVAWYQQKPGKAPKLLIYSASFLYSGVPSRFSGSGSGTDFTLTISSLQPEDFATYYCQQSYTTPPTFGQGTKVEIKR
notes: HC linker short, LC linker long; also called DVD461H; DVD461L
B8: DVD455 (bispecific antibody, IgG1)
VH: QVQLVQSGAEVKKPGASVKISCKASGYSFTAYYIHWVKQAPGQGLEWIGYISSYNGATNYNQKFKGRVTFTTDTSTSTAYMELRSLRSDDTAVYYCARDYDYDVGMDYWGQGTLVTVSSASTKGPSVFPLAPEVQLVESGGGLVQPGGSLRLSCAASGFTISDYWIHWVRQAPGKGLEWVAGITPAGGYTYYADSVKGRFTISADTSKNTAYLQMNSLRAEDTAVYYCARFVFFLPYAMDYWGQGTLVTVSS
VL: B6 VL
notes: HC linker long, LC linker short; also called DVD455H; DVD455L
B9: DVD449 (bispecific antibody, IgG1)
VH: B8 VH
VL: B7 VL
notes: HC linker long, LC linker long; also called DVD449H; DVD449L
B10: DVD521 (bispecific antibody, IgG1)
VH: EVQLQQSGPELEKPGASVKISCKASGYSFTGYNMNWVKQSNGKSLEWIGNIDPYFGGTNYNQKFKGKATLTVDKSSSTAYMQLKSLTSEDSAVYYCARNYDYDGGCFDYWGQGTTLTVSSASTKGPSVFPLAPEVQLVESGGGLVQPGGSLRLSCAASGFTINASWIHWVRQAPGKGLEWVGAIYPYSGYTNYADSVKGRFTISADTSKNTAYLQMNSLRAEDTAVYYCARWGHSTSPWAMDYWGQGTLVTVSS
VL: QAVVTQESALTTSPGETVTLTCRSSTGAVTTSNYANWVQEKPDHLFTGLIGGTNNRAPGVPARFSGSLIGDKAALTITGAQTEDEAIYFCALWYSNHWVFGGGTKLTVLGQPKAAPSVTLFPPDIQMTQSPSSLSASVGDRVTITCRASQVIRRSLAWYQQKPGKAPKLLIYAASNLASGVPSRFSGSGSGTDFTLTISSLQPEDFATYYCQQSNTSPLTFGQGTKVEIKR
notes: DVD-Ig, outer AB073 / inner AB071; HC linker long, LC linker long; also called DVD521H; DVD521L
B11: DVD450 (bispecific antibody, IgG1)
VH: B5 VH
VL: B4 VL
notes: HC linker long, LC linker long; also called DVD450H; DVD450L
B12: DVD515 (bispecific antibody, IgG1)
VH: EVQLQQSGPELEKPGASVKISCKASGYSFTGYNMNWVKQSNGKSLEWIGNIDPYFGGTNYNQKFKGKATLTVDKSSSTAYMQLKSLTSEDSAVYYCARNYDYDGGCFDYWGQGTTLTVSSASTKGPEVQLVESGGGLVQPGGSLRLSCAASGFTINASWIHWVRQAPGKGLEWVGAIYPYSGYTNYADSVKGRFTISADTSKNTAYLQMNSLRAEDTAVYYCARWGHSTSPWAMDYWGQGTLVTVSS
VL: QAVVTQESALTTSPGETVTLTCRSSTGAVTTSNYANWVQEKPDHLFTGLIGGTNNRAPGVPARFSGSLIGDKAALTITGAQTEDEAIYFCALWYSNHWVFGGGTKLTVLGQPKAAPDIQMTQSPSSLSASVGDRVTITCRASQVIRRSLAWYQQKPGKAPKLLIYAASNLASGVPSRFSGSGSGTDFTLTISSLQPEDFATYYCQQSNTSPLTFGQGTKVEIKR
notes: DVD-Ig, outer AB073 / inner AB071; HC linker short, LC linker short; also called DVD515H; DVD515L

molecular target: VEGF (VEGF 1-165 aa, R&D Systems 293-VE-010) (UniProt P15692 27-191); assay: Direct bind ELISA, VEGF coated on plate;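 also: ELISA screening of antibodies for binding to the plate-coated target antigen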
Sequence (P15692 other isoform, or with tags, fused parts or gaps limits assumed): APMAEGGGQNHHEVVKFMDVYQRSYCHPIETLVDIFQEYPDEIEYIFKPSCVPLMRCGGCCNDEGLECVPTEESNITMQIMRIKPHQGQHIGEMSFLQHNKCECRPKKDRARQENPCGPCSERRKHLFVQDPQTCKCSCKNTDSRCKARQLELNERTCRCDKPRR

Binder | EC50 [nM]
B1 | 24.6
B2 | 0.3
B3 | 2.44
B4 | 8
B5 | 1.63
B6 | 611
B7 | 10.4
B8 | 26.7
B9 | 15.6
B10 | 655
B11 | 12.1
B12 | 3020
